How the values were obtained:
Assay in all cases: cell-based or functional assay
[1] = molecular target: JNK2α2(h) (human) (UniProt P45984)
[2] = molecular target: STK33(h) (human) (UniProt Q9BYT3)
[3] = molecular target: PKCθ(h) (human) (UniProt Q04759)
[4] = molecular target: MAPKAP-K3(h) (human) (UniProt Q16644)
[5] = molecular target: CDK2/cyclinE(h) (human) (UniProt P24941)
[6] = molecular target: PASK(h) (human) (UniProt Q96RG2)
[7] = molecular target: T1, TAO2(h) (human) (UniProt Q9UL54)
T1 sequence (looked up): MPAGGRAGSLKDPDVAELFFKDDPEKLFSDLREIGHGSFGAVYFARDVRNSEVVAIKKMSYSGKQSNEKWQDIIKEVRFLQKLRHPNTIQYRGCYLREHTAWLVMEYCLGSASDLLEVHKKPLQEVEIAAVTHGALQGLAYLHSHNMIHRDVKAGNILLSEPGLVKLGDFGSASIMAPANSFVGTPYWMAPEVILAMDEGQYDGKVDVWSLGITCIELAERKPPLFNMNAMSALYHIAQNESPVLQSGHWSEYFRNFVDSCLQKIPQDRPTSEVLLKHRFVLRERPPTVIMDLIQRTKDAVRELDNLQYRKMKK

[8] = molecular target: T2, TBK1(h) (human) (UniProt Q9UHD2)
T2 sequence (looked up): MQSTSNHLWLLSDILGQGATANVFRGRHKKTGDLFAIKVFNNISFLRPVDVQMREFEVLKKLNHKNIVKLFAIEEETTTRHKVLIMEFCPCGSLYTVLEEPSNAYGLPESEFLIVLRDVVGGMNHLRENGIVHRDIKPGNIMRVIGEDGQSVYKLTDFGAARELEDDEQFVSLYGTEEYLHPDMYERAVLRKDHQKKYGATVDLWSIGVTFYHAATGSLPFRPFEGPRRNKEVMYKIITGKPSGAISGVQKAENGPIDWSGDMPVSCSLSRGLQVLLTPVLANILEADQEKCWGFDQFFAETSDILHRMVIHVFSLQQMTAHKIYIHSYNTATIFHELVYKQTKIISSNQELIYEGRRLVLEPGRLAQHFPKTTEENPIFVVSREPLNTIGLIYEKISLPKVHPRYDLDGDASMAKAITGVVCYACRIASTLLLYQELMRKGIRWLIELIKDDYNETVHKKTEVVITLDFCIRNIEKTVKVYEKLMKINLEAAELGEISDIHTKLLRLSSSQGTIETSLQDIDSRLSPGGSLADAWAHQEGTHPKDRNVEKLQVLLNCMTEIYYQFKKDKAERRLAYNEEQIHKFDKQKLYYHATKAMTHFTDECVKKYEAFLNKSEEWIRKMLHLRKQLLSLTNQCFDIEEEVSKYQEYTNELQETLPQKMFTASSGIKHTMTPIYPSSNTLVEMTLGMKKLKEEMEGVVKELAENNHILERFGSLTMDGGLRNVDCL

[9] = molecular target: ZIPK(h) (human) (UniProt O43293)
ZIPK(h) (human), sequence (O43293 whole entry): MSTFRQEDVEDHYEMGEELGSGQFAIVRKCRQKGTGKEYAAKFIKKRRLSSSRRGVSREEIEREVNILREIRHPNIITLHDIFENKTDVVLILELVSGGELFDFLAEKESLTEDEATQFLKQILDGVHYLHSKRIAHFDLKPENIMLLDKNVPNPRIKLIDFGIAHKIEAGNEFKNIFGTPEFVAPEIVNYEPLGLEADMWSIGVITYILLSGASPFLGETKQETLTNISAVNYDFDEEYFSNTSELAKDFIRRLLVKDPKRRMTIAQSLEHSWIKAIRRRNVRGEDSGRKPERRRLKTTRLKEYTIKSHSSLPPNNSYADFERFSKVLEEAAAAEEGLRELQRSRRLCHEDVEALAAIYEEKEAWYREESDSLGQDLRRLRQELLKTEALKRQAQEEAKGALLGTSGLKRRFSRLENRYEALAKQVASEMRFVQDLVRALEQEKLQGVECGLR

[10] = molecular target: HIPK3(h) (human) (UniProt Q9H422)
HIPK3(h) (human), sequence (Q9H422 163-562 limits assumed): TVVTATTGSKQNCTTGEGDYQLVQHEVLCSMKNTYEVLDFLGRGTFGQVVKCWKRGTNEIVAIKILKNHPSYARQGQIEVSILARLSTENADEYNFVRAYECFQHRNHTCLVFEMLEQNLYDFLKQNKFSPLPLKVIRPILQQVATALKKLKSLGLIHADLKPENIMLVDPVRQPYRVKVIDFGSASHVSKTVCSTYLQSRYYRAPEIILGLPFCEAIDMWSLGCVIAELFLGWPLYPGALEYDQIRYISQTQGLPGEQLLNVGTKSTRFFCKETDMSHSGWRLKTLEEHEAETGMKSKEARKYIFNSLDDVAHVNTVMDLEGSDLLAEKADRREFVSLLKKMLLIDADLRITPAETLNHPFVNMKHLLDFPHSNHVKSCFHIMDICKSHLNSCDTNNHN

[11] = molecular target: T3, CHK1(h) (human) (UniProt O14757)
T3 sequence (looked up): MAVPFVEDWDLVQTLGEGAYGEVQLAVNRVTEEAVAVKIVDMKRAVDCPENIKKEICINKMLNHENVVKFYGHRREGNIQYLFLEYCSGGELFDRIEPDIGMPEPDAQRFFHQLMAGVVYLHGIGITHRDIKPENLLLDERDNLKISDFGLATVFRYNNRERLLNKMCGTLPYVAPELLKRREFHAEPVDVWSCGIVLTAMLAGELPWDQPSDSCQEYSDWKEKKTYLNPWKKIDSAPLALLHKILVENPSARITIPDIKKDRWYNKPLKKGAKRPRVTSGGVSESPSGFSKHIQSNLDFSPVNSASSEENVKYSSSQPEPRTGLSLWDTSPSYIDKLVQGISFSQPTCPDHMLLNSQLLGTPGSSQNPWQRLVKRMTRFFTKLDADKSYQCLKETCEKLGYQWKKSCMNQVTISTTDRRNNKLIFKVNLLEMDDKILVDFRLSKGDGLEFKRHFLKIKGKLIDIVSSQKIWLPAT

[12] = molecular target: EGFR(L861Q)(h) (human) (UniProt P00533)
[13] = molecular target: Plk3(h) (human) (UniProt Q9H4B4)
Plk3(h) (human), sequence (Q9H4B4 58-340 limits assumed): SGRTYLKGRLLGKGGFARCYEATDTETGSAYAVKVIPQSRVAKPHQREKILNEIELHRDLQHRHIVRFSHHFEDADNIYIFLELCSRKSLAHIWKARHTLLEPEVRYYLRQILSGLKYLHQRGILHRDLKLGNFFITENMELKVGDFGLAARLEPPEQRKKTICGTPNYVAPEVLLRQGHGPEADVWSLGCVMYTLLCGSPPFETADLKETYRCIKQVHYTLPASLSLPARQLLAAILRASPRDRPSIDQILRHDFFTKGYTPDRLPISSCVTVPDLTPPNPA

[14] = molecular target: CK1δ(h) (human) (UniProt P48730)
[15] = molecular target: EGFR(T790M,L858R)(h) (human) (UniProt P00533)
[16] = molecular target: ROCK-II(h) (human) (UniProt O75116)
[17] = molecular target: CHK2(R145W)(h) (human) (UniProt O96017)
CHK2(R145W)(h) (human), sequence (O96017 5-543 R145W limits assumed): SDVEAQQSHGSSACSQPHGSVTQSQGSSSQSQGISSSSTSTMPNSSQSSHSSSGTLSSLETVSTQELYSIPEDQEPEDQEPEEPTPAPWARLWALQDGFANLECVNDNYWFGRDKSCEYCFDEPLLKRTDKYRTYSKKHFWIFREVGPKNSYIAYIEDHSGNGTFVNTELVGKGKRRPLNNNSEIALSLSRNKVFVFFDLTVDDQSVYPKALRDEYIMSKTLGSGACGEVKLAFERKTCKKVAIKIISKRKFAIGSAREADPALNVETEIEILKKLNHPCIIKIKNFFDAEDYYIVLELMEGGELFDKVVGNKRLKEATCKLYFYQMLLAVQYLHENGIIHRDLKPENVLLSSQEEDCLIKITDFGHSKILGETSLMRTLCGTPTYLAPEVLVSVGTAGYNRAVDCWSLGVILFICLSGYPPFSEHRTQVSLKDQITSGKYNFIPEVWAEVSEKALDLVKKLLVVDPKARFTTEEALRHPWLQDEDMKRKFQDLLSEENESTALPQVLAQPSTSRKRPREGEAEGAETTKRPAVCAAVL

[18] = molecular target: NEK6(h) (human) (UniProt Q9HC98)
NEK6(h) (human), sequence (Q9HC98 whole entry): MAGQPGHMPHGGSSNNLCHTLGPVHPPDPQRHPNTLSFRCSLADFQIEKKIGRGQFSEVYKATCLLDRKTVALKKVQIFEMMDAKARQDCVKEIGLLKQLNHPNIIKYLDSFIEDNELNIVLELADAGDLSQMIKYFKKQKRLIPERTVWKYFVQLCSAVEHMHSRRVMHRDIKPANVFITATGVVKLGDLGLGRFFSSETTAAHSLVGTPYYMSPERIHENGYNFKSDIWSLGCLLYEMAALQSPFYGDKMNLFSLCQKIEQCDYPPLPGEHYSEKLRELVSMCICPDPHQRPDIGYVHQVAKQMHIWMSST

[19] = molecular target: Abl(h) (human) (UniProt P00519)
[20] = molecular target: HIPK1(h) (human) (UniProt Q86Z02)
HIPK1(h) (human), sequence (Q86Z02 158-555 limits assumed): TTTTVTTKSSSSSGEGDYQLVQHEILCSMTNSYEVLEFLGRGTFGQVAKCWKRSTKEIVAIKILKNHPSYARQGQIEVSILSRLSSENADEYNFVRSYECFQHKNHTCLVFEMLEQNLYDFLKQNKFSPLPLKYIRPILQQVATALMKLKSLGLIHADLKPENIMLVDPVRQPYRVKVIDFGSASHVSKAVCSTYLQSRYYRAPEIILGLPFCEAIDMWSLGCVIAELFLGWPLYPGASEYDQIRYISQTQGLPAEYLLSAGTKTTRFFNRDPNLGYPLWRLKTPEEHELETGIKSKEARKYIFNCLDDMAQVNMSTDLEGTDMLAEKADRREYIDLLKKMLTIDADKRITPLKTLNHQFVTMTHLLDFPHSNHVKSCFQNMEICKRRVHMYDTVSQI

[21] = molecular target: SAPK2a(h) (human) (UniProt Q16539)
[22] = molecular target: p70S6K(h) (human) (UniProt P23443)
[23] = molecular target: ALK(h) (human) (UniProt Q9UM73)
[24] = molecular target: ErbB4(h) (human) (UniProt Q15303)
ErbB4(h) (human), sequence (Q15303 706-991 limits assumed): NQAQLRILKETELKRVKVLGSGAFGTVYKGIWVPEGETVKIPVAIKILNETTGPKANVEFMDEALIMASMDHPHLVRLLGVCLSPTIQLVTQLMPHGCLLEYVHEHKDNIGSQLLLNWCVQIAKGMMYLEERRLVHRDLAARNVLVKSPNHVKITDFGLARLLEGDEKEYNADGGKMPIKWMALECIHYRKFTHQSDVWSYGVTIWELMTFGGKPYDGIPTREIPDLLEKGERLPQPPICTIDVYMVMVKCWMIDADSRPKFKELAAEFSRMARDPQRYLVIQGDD

MAPKAP-K3(h) (human), sequence (Q16644 whole entry): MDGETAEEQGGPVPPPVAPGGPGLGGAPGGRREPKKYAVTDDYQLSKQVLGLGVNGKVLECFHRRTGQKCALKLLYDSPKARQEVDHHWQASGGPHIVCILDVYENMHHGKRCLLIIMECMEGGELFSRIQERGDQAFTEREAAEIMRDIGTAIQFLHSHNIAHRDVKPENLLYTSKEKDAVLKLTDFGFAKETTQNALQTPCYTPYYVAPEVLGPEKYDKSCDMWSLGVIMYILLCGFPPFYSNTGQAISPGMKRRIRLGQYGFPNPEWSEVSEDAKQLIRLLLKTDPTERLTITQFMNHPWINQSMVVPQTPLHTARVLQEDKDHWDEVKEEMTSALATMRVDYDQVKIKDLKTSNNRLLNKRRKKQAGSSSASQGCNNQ
PASK(h) (human), sequence (Q96RG2 879-1323 limits assumed): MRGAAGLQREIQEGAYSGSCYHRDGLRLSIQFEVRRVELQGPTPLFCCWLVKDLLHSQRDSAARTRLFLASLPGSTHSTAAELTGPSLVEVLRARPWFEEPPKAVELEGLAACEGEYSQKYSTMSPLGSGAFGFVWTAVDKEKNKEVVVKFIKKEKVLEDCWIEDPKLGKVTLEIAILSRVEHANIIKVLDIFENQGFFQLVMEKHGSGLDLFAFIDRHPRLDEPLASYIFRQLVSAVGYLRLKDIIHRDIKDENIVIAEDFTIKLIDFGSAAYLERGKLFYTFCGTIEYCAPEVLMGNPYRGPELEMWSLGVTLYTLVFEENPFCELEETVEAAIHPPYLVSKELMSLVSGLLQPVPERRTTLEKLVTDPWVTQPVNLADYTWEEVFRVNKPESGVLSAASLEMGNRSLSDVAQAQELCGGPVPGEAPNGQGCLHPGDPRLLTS
STK33(h) (human), sequence (Q9BYT3 whole entry): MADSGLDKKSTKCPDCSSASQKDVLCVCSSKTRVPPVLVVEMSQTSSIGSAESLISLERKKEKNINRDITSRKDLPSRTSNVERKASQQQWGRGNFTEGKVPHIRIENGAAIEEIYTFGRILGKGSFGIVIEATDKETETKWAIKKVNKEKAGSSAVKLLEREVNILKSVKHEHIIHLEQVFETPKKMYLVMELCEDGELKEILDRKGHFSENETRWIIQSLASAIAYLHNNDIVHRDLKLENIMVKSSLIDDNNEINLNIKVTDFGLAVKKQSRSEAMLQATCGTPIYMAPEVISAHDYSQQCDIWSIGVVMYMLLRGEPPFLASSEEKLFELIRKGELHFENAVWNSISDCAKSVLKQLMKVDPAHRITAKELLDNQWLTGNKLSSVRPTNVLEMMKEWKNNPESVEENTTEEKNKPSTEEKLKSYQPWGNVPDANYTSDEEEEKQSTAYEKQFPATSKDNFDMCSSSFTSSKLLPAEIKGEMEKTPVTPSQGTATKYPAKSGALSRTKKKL
PKCθ(h) (human), sequence (Q04759 whole entry): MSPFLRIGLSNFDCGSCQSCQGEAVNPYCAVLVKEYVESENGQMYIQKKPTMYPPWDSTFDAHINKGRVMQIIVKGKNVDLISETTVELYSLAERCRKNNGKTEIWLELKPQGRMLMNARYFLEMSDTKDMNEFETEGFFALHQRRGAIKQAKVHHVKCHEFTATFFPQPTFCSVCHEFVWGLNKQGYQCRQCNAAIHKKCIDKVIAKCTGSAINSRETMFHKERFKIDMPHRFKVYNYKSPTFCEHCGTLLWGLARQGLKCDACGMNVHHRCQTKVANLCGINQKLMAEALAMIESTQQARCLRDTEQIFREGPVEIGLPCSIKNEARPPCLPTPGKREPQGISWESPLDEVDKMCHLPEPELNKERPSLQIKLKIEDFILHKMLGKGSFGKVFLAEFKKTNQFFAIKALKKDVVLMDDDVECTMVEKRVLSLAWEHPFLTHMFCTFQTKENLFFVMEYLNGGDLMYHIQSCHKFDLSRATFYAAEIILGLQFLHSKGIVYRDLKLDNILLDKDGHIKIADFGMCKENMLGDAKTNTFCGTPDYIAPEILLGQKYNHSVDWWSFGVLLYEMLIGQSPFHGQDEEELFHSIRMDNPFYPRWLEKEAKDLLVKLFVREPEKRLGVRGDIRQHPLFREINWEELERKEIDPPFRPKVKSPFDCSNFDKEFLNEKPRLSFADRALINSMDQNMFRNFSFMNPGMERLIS

With MMI-0500 (peptide) the % activity, 100 µM [1] was 81%, the % activity, 100 µM [2] was 16% and the % activity, 100 µM [3] was 62%. The % activity, 100 µM [4] was 9%, the inhibition of kinase activity at 100 µM [4] was over 65% and the % activity, 100 µM [5] was 19%. It also gave a % activity, 100 µM [6] of 9%, a % activity, 100 µM [7] of 15% and a % activity, 100 µM [8] of 16%. For the same substance, the % activity, 100 µM [9] was 1%, the % activity, 100 µM [10] was 85% and the % activity, 100 µM [11] was 65%. For the same substance, the % activity, 100 µM [12] was 15%, the % activity, 100 µM [13] was 122% and the % activity, 100 µM [14] was 78%. For the same substance, the % activity, 100 µM [15] was 53%, the % activity, 100 µM [16] was 2% and the % activity, 100 µM [17] was 3%. For the same substance, the % activity, 100 µM [18] was 49%, the % activity, 100 µM [19] was 16% and the % activity, 100 µM [20] was 47%. For the same substance, the % activity, 100 µM [21] was 52%, the % activity, 100 µM [22] was 3% and the % activity, 100 µM [23] was 12%. It also gave a % activity, 100 µM [24] of 2%.

From patent US20140072613A1, “Compositions and Methods for Treating Cutaneous Scarring” (priority 2012, published 2014)
